Measured values as given in PMC9328131.
Like-named read-outs stand apart in the source and are kept apart here.

T1: Ecm16 (Streptomyces lasalocidi, UniProt Q0X0A9 1-792)
T1 sequence: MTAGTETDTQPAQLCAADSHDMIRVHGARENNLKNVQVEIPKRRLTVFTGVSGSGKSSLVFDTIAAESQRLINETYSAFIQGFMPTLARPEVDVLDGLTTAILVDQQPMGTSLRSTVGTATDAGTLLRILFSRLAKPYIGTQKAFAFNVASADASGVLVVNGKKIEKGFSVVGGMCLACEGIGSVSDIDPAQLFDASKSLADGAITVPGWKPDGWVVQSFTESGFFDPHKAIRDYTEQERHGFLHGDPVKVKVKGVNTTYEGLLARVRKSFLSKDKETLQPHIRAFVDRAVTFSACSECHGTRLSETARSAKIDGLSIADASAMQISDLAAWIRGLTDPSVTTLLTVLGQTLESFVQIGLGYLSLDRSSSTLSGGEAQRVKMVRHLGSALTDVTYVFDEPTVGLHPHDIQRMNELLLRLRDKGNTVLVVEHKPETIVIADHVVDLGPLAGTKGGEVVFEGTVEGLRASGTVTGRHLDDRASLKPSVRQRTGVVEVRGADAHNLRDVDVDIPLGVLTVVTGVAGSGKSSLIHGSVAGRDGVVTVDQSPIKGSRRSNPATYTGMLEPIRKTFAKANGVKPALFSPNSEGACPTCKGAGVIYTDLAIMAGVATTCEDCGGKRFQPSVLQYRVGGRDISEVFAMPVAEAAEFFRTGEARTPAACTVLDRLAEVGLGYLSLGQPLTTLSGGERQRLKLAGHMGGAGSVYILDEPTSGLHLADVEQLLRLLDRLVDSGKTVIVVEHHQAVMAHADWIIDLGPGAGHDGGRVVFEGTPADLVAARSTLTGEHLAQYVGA

B1: 32-mer dsDNA (dsDNA)
DNA 1: AGTGATCAGTGGTTACGTAACCACTGATCACT
DNA 2: B1 DNA 1
B2: 32-mer ssDNA (ssDNA)
DNA: B1 DNA 1

How the values were obtained:
Assay in all cases: EMSA
[1] = target: T1, Ecm16
[2] = target: T1, Ecm16; remark: listed apart in the source
[3] = target: T1, Ecm16; remark: listed apart in the source

Binder	Kd [1] [nM]	Kd [2] [nM]	Kd [3] [nM]
B1	34.8	20.6	
B2			39.6
